This note sets out measurements from the domain aggregation screens of Martell et al. (2025).

This data set in a line: soluble fraction after stress (log2 fold change); higher = more stays soluble; pooled small domains, quantitative proteomics. The conditions noted are these: stress: pH 4. In a few lines: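 Aggregation propensity is estimated from the fold change in each domain's soluble amount after acid stress. Pooled small-domain libraries were stressed at pH 4, and higher log2 values mean more stayed soluble.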
For “HMGTSMDPPVIIVSDGKLIQKGLEVSGLKKQWLYDLIDRKHMKISDIFLLTADKTGKYNLIKRS”, the “soluble fraction (log2)” value is -0.134.

With “HMGTSQSAVKAILAQLISDENKQKPYSDEALSRLLQQQGIDIARRTVAKYREALNIPPAHQRK”, the “soluble fraction (log2)” value came out at 0.365.

Take “HMGTSRVQSILFDQSQWTINRAVHWLNTHHFISTKIDKTDKYLRFRQFDPNPDSHHATKRTSQGITFILE”: the “soluble fraction (log2)” value is at least 0.43.

Take “HMGTTIAMSKLKQVLRWKEEGYSNRKIAQLVGLNKETVNNYISRANADSLSQKELLQLDDFVLDIRLRG”: the “soluble fraction (log2)” value was -0.138.

For “HMGTTTGKVNATGVNFRTGPSTSYSSMGKLGIDTAVTILGKSGDWYQVKVNSTGKTGYVFAKYITITSVV”, the “soluble fraction (log2)” value is -0.434.

For the sequence “HMGTVIGMGRITAGGVNFRETEGGGVIEKLERDTLVEVLTVPSVIDTTHWYQVRYNNRTGYVQAPFVQLLG”, the “soluble fraction (log2)” value worked out at 0.176.

As to “HMGTVKWFNATKGFGFIVPSDGGKDVFVHITAVQKAGLQGLNEGQKVSYEVAMERGKAAATNLR”, the “soluble fraction (log2)” value was -0.259.

On to “HMGTVRFYNKERGFGFVVSDDGESVFLPAKALPDGVSDLSPGTRVDYGAALGKKGSQ”, for which the “soluble fraction (log2)” value is -0.203.

Turning to “HMGVAAPMPGTITDVRVKVGDRVQPRTVVMMLEAMKMENEIFAGRAGVVSQVAVEKGASVNTGDLLISIDP”, the “soluble fraction (log2)” value is 0.325.

For the sequence “HMGVAASEVHREKKESSLQWRQSYNVATDQRRQGKTYKEITEFLNGAELKNSKGGTWSISGVRKMLM”, the “soluble fraction (log2)” value was at least 0.43.

For “HMGVARGQAQVTTRQHVVQPGETLYQISKQYGVTVAEILRYNADIEDNTVKVGQTLQIPTPLP”, the “soluble fraction (log2)” value was -0.206.

In the case of “HMGVDMAPESIVGKKGVAATELRPAGKVEIHGQVYDAVSVGMFIKRGTGVKVVRYEAAQIYVEPE”, the “soluble fraction (log2)” value is -0.112.

Take “HMGVEALTPRQREVLALMAQGRSNGWIAAELGLSEKAIVQHTSNIYDMLGLAVDADDHRRVLAVIHYLT”: the “soluble fraction (log2)” value was -0.943.

Turning to “HMGVENDGYVLPRELKKGDTVLIADLGKEATVLSPVDRNGNVEVLAGAAKTRVKLKNLRLIE”, the “soluble fraction (log2)” value was found to be 0.179.

As for “HMGVEVPRGDGSTVVRVRAGSSLADFAERIGADPAALITVLFRMGEMATVNQSLDEDTFKLLGAELGYDVQ”, the “soluble fraction (log2)” value was -0.721.

Take “HMGVGIAEAMKHVADEDYGDLSSEFQRIFSAVDGGSTLGDAVRAQMRATSSAGLRRTLSVLAMSVE”: the “soluble fraction (log2)” value is -0.314.

As to “HMGVGTTDERLAVLNQIASRQTEALEKLGPNNPLVGLGQIRNTLSKMLEISGYPDSNQFFKQVPLDYEPPP”, the “soluble fraction (log2)” value is -0.0341.

As to “HMGVIDTLSGPQKAAAILVAIGRPSASRLLKHFNAEDLRKLAGHARTLEPISPLDFEHLVKQFEDSFAEG”, the “soluble fraction (log2)” value was -0.745.

For “HMGVIGADIRALRVSRGWTLSDLAEALDRSVGWLSQVERDVSEPALADIRRIAGIFDLPVSFFFSD”, the “soluble fraction (log2)” value was -1.64.

With “HMGVLDFSAQLLKHLEMNGGQTPLGDKSPAEEIYAVFGVSKKVFKKAVGDLYRKRLIEISSNGIRMTS”, the “soluble fraction (log2)” value worked out at 0.336.

For the sequence “HMGVLGVDALAAAAEVSVDTVRYYQHLGLLEPPRREGRRAVYGPSHLARMGEIRRLAAAGFTLDQIRQLAE”, the “soluble fraction (log2)” value is -1.62.

In the case of “HMGVPTEQQSLIGKSGIAATDLRPSGKVEIDGKRYDAVSNYAGFIAKGTPISVVRYETGQIYVE”, the “soluble fraction (log2)” value worked out at 0.0721.

On to “HMGYDDVIVINGKNETYGFPTKVEDDPVLSLVIKGDRSIDYAEERRLFYVAMTRTKNRVFFVAP”, for which the “soluble fraction (log2)” value is -0.803.

Turning to “HMGYGEQEAEATKYMSLHAIMSADETLSKMYTPENQHKLMTHVMEQNGIKNVKDYLTPPSELP”, the “soluble fraction (log2)” value is -0.443.

In the case of “HMGYPYDTVTTAKVNLRAKRSTSSDILKKIPEGATVTVKGVTGTFASVDYNGTSGYVKVDYLV”, the “soluble fraction (log2)” value was -0.196.

As to “HMGYSSKISELLTKYNMNASELAQKVGVPPTTIYSIIKRDSKKADIEVLIKIAKLFNVPVEYF”, the “soluble fraction (log2)” value was 0.186.

Turning to “HMGYTPGVVIQKSAILEEINQPDLALGMMLEAVKKDSQNLDILNRLVTLLIDQKKNEDAEIYNKKIIT”, the “soluble fraction (log2)” value was 0.187.

As for “HMHAGMKSWTIQYEKSPIYGSFLMYKDGNIYIQKEDNVVVHFPLDRFSQNDQAILKSRIEKIDQINKSS”, the “soluble fraction (log2)” value is -0.0137.

Turning to “HMHAPKIIVLTINPDKIRDVIGPGGKMIKSIVAATGVKMDVEDDGKIHISSSDQKAADEAIRMINEITAEA”, the “soluble fraction (log2)” value was found to be 0.223.

For “HMHAPLEVGSVVRIEGQKALGTILSISDREAIVALGALKTTIPLKRLHGVSPAEAQRHLRKTTPAQAVR”, the “soluble fraction (log2)” value amounted to 0.0546.

With “HMHAQDTLMTRAGETRTVKILEIGLEEIKYRIWGLDDSPVIVIDKIDVKQIVFSNGEKMTIVQ”, the “soluble fraction (log2)” value is -1.86.

Consider “HMHDLTERQREILQTLASGKMALREILSILSQPPSLRTLRDELYHLKRIGLVDTMGYGRGATWFLTQ”, for which the “soluble fraction (log2)” value is -0.13.

Turning to “HMHDNPLSAQEQRVLDLIAAGKTSKEIASQLFLSDGTVRNYTTSIFNKLNANNRVEAINIAQENGW”, the “soluble fraction (log2)” value came out at 0.123.

Take “HMHDPRLPLPGTLLAREFQGRDIVVKVLDNGFEFDGRRYKSLSAIAQEVTGSKWNGFLFFGI”: the “soluble fraction (log2)” value is -0.0393.

Consider “HMHDWDITTAAKPEKIFELFSDIPVLETGLKHGTVTLLIDHEPYEVTTFRVDGNYTDGRHPDSVAFT”, for which the “soluble fraction (log2)” value is -0.366.

As for “HMHGESIPIPNILHKRYADAEQIVNNLRLEIEVTDTGYVRSLPPGAILEQTPGPGERVKSGHIIYVTINAA”, the “soluble fraction (log2)” value was -0.0135.

With “HMHGETLAAKRREEIKVRIQNIYDQSEQIFGYRKITATLRSQGVVVSEKLVSQLMRELEISSVS”, the “soluble fraction (log2)” value is -0.896.

For “HMHGSSVEIPNIYGLPASEAVQLLDKADLRYEVIDSVYTTEVPKGAVYDLSPKAGSRVKAGRIIFLTLNA”, the “soluble fraction (log2)” value is -0.075.

As for “HMHGSTAVVPQIKNMPYSEASVRLGANGLAIEINDSVYDRDMPPGTVIESWPKAGAVVKQGRQVYVTVTA”, the “soluble fraction (log2)” value was 0.218.

On to “HMHHGALKQALLDETARILAEEGESALSLRRLASNLGVSRTAPYNHFDNKDALLSAVAEEGFRR”, for which the “soluble fraction (log2)” value was -0.0708.

For “HMHIELNDTQKRILNFLSDDPNLSAVRLAEQLGISSRNVEKNIKKLKEYGILIRHGSPKNGYWEIVV”, the “soluble fraction (log2)” value was -0.2.

In the case of “HMHITSFTIKQADQIVGTTPVREQAVGAAKARAQQTGTPVSVIAYLDTGEEREVIIHPDGTN”, the “soluble fraction (log2)” value is -0.328.

As to “HMHKLTSRQEEILQFIKDYLSEIGYPPTRSEIAQKMGFRSTNAAEEHLRALARKGAIEILPGPSRGLRLP”, the “soluble fraction (log2)” value was -0.393.

For “HMHKTEIKIPSREDILAVLRQAQAPLTREQVFEHLKLTEDQIPIIEKRLNAMERDGQLMPNRKGMLLLSTK”, the “soluble fraction (log2)” value came out at 0.00265.

Take “HMHKYEYESLNHVNVGSNLKYISTHFGQPKLIKKSKYHENLNFAYYLEKKFILTLILEGDRVNAYTITG”: the “soluble fraction (log2)” value was -0.236.

As for “HMHLEKGEVVVPDLKGLTMRQVGELLGKLNLRYSFSGTGLAVKQFPESGQIVNQGDIIEVIF”, the “soluble fraction (log2)” value worked out at 0.174.

Regarding “HMHLLPAREQVAAYLRKAILRQEIREGTILNLADTARQMGVSVTPVREALQLLAAQGLVRLRPNKGAVVMG”, the “soluble fraction (log2)” value is 0.158.

With “HMHLNVYRDEDEAMLAFKDHLIGTHQPIRVRVEKALPDGTMGHKIVDTTIGRIVFNHNIPQD”, the “soluble fraction (log2)” value stood at 0.0727.

Take “HMHLTEAPLIKITYFEADQKKSGGQYITIINHLKKINEYENLLVLENGVKINIDDIYELESV”: the “soluble fraction (log2)” value was -0.804.

Turning to “HMHMNFGEILQTKRKEKGFTQEELAHQLLVSSKTISNWETNKTTPDIDNVIRISQLFDISLNQLLLE”, the “soluble fraction (log2)” value was -0.424.

In the case of “HMHMSKKLADSIISLRRKHGFSQEQLAEKIGVTRQAISNWERGTATPDVETLNLIAKLFDMDLLAIINGE”, the “soluble fraction (log2)” value was -0.514.

For “HMHNLYAPTQKEVDHARRVVEAAEAAAREGLGVVSLNGKMVDGPVIDRARLVLSRAELSGIRE”, the “soluble fraction (log2)” value was found to be 0.274.

For “HMHNNTITLNKKTYVYTASGKKMSKYLGYTYINKGTTLNYYGTKNIKGKTFYYIGDHAYVNAANVGKVTN”, the “soluble fraction (log2)” value is at least 0.43.

For the sequence “HMHNQIGDKIRELRTRSNLTQADLGKLVGVSMQAVSKWERGGTPDIDVLLSVAKYFNISLDEMVGRT”, the “soluble fraction (log2)” value was -1.63.

“HMHPEITLHPVRANIYSISVKNATSMEIYSVSGQLVGIRELKEGTNTLDLTGYINGVYIVNLQNKAFKLVK”: the “soluble fraction (log2)” value is -0.465.

For “HMHPELSDSQRTLIALMASGLKDEAIAVEMGVGARTVRRKVQELYELLGVRTRFQAGVAANQRGW”, the “soluble fraction (log2)” value is -0.606.

Regarding “HMHPKDVPTRRELEVLQAVSEGLSTAEIGLRLDITENTVETFRRRLIQKFDAKNAIDLVVKAMAQGWIKV”, the “soluble fraction (log2)” value is -0.255.

For the sequence “HMHQGTIEVGSIVHIEGQKALGTILSLTQREAIVGLGALKTTIPLKRLHLATEAEARRHKKSVTPQEAV”, the “soluble fraction (log2)” value was 0.284.

For the sequence “HMHQIFAETVFEDIAFGPRNKGFNEEEVAKQVREAMAFVGLDYDTYAQRSPFQLSGGQMRRVAIAGVVA”, the “soluble fraction (log2)” value was -0.874.

Consider “HMHQKYIITGTRDTYVVSQGETLRTIAEHVYGSRGYARYIIEHNHITHPDDIPVGLTIRLPELELNPDYR”, for which the “soluble fraction (log2)” value is -0.209.

For the sequence “HMHRAKRTKAQTQSSLESIEGIGPKTRKQLLVHFGGLAEVKAASVSELQKVKGISLDKAQKIYDFFHGS”, the “soluble fraction (log2)” value was found to be 0.119.

As for “HMHRNLSFEEEKEFLSAYTKQAEAGQIVDLNEMKAAYIEKVGHSIGGSQIYRMLERHGWRKVM”, the “soluble fraction (log2)” value was -0.468.

As to “HMHSDSEIEKGYTDDGQKLSNVNGVYMTKSEMYNKGIVEKDPNTGEEVMGRNRVNPVTGELE”, the “soluble fraction (log2)” value came to 0.204.

Turning to “HMHSDWITWWYLKDKRFDDDYSLWDRQPVHPEYFEVVKEFKAPPESNPGGLDEVKRILRTYIPDAFAP”, the “soluble fraction (log2)” value amounted to 0.162.

As for “HMHSESAAHQRTSVELFARIPETGNLQSAQRHFDVINQFGRFPHRNKILQRPSSEQEEAFLRQPGSG”, the “soluble fraction (log2)” value is -0.0644.

On to “HMHSILDDIPTVGPARRKALMRRYESLEAIRQATVDELKELPEINEASAEAIVSFFAGQAKEG”, for which the “soluble fraction (log2)” value is -1.13.

With “HMHSRTWTSADGVKTFEGELQSYDAASGKVSVILPNHKRITFKQEKLSADDIAWLEKNGNRP”, the “soluble fraction (log2)” value is 0.218.

Turning to “HMHTGLTNYEYKQIKSSLLKILTQSESMRLGELVDKVDQFESEKVTTVIRFLVGNEELMLFDDTLTLKKQL”, the “soluble fraction (log2)” value was -0.232.

“HMHTTIIVASRDIAAGSVLTSHDLSSVAWVGGAVPKGSYTAADLAVGKTAFTAFQQGEPILESRLAS”: the “soluble fraction (log2)” value was determined as 0.317.
